In PMC4865122, “Structural Analysis and Insights into the Oligomeric State of an Arginine-Dependent Transcriptional Regulator from Bacillus halodurans” (PLoS ONE, 2016):

Tests used:
BhArgR (ArgR, Bh2777) = target: T1, BhArgR (ArgR, Bh2777) (Halalkalibacterium halodurans, UniProt Q9K973); experiment: SEC-MALS (trimer to hexamer shift); EMSA; details: 10 mM L-arginine; SEC-MALS: 20 mM Tris-HCl pH 8.0, 200 mM NaCl, 2 mM MgCl2, 1 mM DTT; EMSA with argG ARG box DNA at 4 C; corepressor; indirect evidence of binding
T1 construct: full length, 149 residues; hexa-histidine tagged in SEC-MALS; trimer (57 kDa) without L-arginine, hexamer (114 kDa) with L-arginine
T1 sequence (Q9K973 1-149): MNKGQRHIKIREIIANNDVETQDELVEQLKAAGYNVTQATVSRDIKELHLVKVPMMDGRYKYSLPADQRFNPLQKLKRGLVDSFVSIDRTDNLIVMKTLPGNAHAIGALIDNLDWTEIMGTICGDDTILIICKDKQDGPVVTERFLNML

[1] = target: T2, BhArgR (Bacillus halodurans) (UniProt Q9K973); experiment: EMSA; details: 50 mM Tris-HCl pH 7.5, 200 mM NaCl, 10 mM MgCl2, 10 mM CaCl2, 10% glycerol; on ice 40 min; 6% native PAGE in TBE pH 8.8 +/- 10 mM L-arginine, 4 C
T2 sequence: T1 sequence (Q9K973 1-149)

[2] = target: the molecule itself; experiment: SEC-MALS; Superdex-200 10/300 GL, 20 mM Tris-HCl pH 8.0, 200 mM NaCl, 2 mM MgCl2, 1 mM DTT; 3~6 mg/ml injected; with 10 mM L-arginine

Q: Which “SEC-MALS (trimer to hexamer shift); EMSA” value (BhArgR (ArgR, Bh2777)) does the source give for `N=C(N)NCCC[C@H](N)C(=O)O` [L-arginine] here?
A: it formed a hexamer in the presence of L-arginine in multi-angle light scattering (MALS) studies

Q: With “CCCAGAATACGCTAAGACAACTTTCTTTTTGCTCATGCTAACAATCCCTCCAAAGTGAATATTCATACTCTTGTTATTATTTTTATACATCCACTTGCATAAAAAAAGGCCTGTATAAA (double strand) [119-bp cognate argG promoter DNA]” as the molecule, how does the binding [1] read?
A: binds

B1: Arginine repressor (ArgR, BH2777) from Bacillus halodurans (natural protein, UniProt Q9K973 1-149, looked up)
chain: T1 sequence (Q9K973 1-149)
notes: Arginine repressor ArgR (BH2777), Bacillus halodurans, 149 amino acid residues; Met1, Asp2 and Lys3 were in the crystal but disordered, and the model covers residues 4-149; The tag is named for the SEC-MALS sample; Oligomer: trimer without L-arginine, hexamer with 10 mM L-arginine; also called BhArgR; B. halodurans ArgR; source: overexpressed and purified
Q: How did the “stoichiometry N” value [2] turn out when B1 was run?
A: 6
